Experiment [1] addresses TssK (V. cholerae (endogenous)). In words: cryo-EM structure.
Experiment [2] concerns the target VgrG trimer of the central spike (V. cholerae (endogenous)). As to the kind of experiment: cryo-EM structure.

One may read the stoichiometry N as a count of units in the complex or per binding partner.

In experiment [1], TssK (natural protein) returned a stoichiometry N of 3.
With VgrG trimer of the central spike, the stoichiometry N in experiment [2] is 3.

Values taken from paper PMC5813253.
